# According to article PMC6755124:
# System: C6orf203 mature form (Homo sapiens)
# Assay: EMSA
# Conditions: 100 nM RNA, 0-2.56 uM protein; EMSA buffer, salt, pH and temperature not given (performed as previously described, ref 19); 100 nM fluorescein-labeled RNA; protein purified in 25 mM Tris-HCl …
substance,measurement,value
mt-tRNAPro,Kd,290 nM
